Assay [1] concerns the target T1, αvβ3 integrin (human, UniProt P06756 31-1048; P05106 27-788).
T1 construct: whole, on cells; On human umbilical vein endothelial cells (HUVECs); also called αvβ3 integrin of endothelial cells
Nature of the assay: binding of His-tagged protein to HUVECs in 96-well plates, His-probe-HRP detection, Scatchard analysis.
Protocol: (§1) HUVECs (3×10⁴ cells/100 μl) were seeded in the 96-well plates and then incubated with increasing concentrations of each protein for 1 hour at room temperature. Cell binding of each protein was detected by His-probe-HRP antibody and quantified by measuring hexosaminidase.

Assay [2] concerns the target T1, αvβ3 integrin. Nature of the assay: binding to HUVECs, Scatchard analysis (Example 16); reference: fas-1 domain (βig-h3 D-IV).
Protocol: as §1

T1 sequence (P06756 31-1048, chain 1 of 2): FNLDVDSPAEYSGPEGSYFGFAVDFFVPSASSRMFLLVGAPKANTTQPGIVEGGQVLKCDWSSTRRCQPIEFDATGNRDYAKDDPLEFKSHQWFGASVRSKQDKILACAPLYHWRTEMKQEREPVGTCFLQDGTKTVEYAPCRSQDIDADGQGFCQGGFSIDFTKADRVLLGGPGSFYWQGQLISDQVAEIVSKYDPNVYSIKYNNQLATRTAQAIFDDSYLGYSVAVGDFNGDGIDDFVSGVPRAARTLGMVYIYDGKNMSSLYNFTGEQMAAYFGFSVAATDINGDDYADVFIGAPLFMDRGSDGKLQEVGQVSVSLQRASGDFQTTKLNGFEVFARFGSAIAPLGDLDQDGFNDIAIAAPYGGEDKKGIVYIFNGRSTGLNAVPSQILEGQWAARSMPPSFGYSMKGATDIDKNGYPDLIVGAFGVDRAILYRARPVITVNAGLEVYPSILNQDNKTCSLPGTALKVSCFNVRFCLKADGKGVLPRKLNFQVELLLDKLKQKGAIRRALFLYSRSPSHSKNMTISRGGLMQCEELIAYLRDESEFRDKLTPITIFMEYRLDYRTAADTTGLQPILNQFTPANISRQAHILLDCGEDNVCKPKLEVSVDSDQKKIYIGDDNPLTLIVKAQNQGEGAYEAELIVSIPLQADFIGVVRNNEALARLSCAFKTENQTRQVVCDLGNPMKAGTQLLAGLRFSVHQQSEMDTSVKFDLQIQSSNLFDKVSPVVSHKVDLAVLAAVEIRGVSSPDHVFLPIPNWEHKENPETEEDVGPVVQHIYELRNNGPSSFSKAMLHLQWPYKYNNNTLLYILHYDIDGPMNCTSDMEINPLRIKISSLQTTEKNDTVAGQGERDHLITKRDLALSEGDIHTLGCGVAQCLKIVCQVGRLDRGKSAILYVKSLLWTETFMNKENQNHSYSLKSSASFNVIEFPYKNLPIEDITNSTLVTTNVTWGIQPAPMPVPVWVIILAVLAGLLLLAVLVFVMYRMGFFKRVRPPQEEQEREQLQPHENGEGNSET
T1 sequence (P05106 27-788, chain 2 of 2): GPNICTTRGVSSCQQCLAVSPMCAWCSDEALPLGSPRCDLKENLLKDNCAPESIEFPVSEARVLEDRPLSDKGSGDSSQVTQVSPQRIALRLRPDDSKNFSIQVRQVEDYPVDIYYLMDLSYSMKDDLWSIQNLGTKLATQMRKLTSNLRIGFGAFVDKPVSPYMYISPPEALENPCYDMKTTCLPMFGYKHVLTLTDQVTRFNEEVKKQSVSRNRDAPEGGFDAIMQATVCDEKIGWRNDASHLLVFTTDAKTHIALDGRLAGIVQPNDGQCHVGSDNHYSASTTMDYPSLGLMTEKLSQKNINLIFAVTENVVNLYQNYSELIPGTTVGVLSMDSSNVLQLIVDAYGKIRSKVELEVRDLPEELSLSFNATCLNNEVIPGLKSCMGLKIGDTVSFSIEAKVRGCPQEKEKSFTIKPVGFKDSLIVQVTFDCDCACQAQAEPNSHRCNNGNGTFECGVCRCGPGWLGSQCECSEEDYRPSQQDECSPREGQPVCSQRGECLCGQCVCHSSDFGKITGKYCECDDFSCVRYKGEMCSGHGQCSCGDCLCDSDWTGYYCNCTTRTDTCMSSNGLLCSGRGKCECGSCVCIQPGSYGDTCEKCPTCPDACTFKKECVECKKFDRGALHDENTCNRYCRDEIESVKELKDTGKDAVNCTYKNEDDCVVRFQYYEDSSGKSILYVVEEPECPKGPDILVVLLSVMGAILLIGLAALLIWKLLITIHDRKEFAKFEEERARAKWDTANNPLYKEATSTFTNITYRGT

B1: recombinant human βig-h3 protein βig-h3 His-β-b (truncated βig-h3) (ligand)
chain: WYQRKICGKSTVISYECCPGYEKVPGEKGCPAALPLSNLYETLGVVGSTTTQLYTDRTEKLRPEMEGPGSFTIFAPSNEAWASLPAEVLDSLVSNVNIELLNALRYHMVGRRVLTDELKHGMTLTSMYQNSNIQIHHYPNGIVTVNCARLLKADHHATNGVVHLIDKVISTITNNIQQIIEIEDTFETLRAAVAASGLNTMLEGNGQYTLLAPTNEAFEKIPSETLNRILGDPEALRDLLNNHILKSAMCAEAIVAGLSVETLEGTTLEVGCSGDMLTINGKAIISNKDILATNGVIHYIDELLIPDSAKTLFELAAESDVSTAIDLFRQAGLGNHLSGSERLTLLAPLNSVFKDGTPPIDAHTRNLLRNHIIKDQLASKYLYHGQTLETLGGKKLRVFVYRNSLCIENSCIAAHDKRGRYGTLFTMDRVLTPPMGTVMDVLKGDNRFSMLVAAIQSAGLTETLNREGVYTVFAPTNEAFRALPPRERSRLLGDAKELANILKYHIGDEILVSGGIGALVRLKSLQGDKLEVSLKNNVVSVNKEPVAEPDIMATNGVVHVITNVLQPPANRPQERGDELADSALEI
notes: also called βig-h3 His-1-b; Wild-type; not shown: vector-derived residues / His tag from the pET-29 vector (Ni-NTA purified, detected with His-probe-HRP)
The term Kd denotes a measure of binding affinity in units of concentration. A higher Kd goes with weaker binding. Molecule B1 had a Kd with αvβ3 integrin [1] of around 0.303 µM. Besides, the “Kd relative to that of the fas-1 domain of βig-h3” value with αvβ3 integrin [2] amounted to 100 fold less.

B2: βig-h3 D-IV (recombinant protein containing the fourth fas-1 domain of human βig-h3) (ligand)
chain: MGTVMDVLKGDNRFSMLVAAIQSAGLTETLNREGVYTVFAPTNEAFRALPPRERSRLLGDAKELANILKYHIGDEILVSGGIGALVRLKSLQGDKLEVSLKNNVVSVNKEPVAEPDIMATNGVVHVITNVL
notes: Cloned in pET-29b(+), Ni-NTA purified; also called fas-1 protein
The molecule B2 came in with a Kd in the assay with αvβ3 integrin [1] of around 30 µM.

Values taken from US20070167369A1 (KYUNGPOOK NATIONAL UNIVERSITY INDUSTRY ACADEMIC COOPERATION …, published 2007).
